Laboratory results reported in PMC3737171, “Genetic Selection for Constitutively Trimerized Human HSF1 Mutants Identifies a Role for Coiled-Coil Motifs in DNA Binding” (G3: Genes|Genomes|Genetics, 2013).
Changes are numbered by the printed parent chain. In names and notes the source's numbering stands.

B1: human HSF1 M161I, expressed in yeast (natural protein, UniProt Q00613 1-529, looked up)
chain: MDLPVGPGAAGPSNVPAFLTKLWTLVSDPDTDALICWSPSGNSFHVFDQGQFAKEVLPKYFKHNNMASFVRQLNMYGFRKVVHIEQGGLVKPERDDTEFQHPCFLRGQEQLLENIKRKVTSVSTLKSEDIKIRQDSVTKLLTDVQLMKGKQECMDSKLLAIKHENEALWREVASLRQKHAQQQKVVNKLIQFLISLVQSNRILGVKRKIPLMLNDSGSAHSMPKYSRQFSLEHVHGSGPYSAPSPAYSSSSLYAPDAVASSGPIISDITELAPASPMASPGGSIDERPLSSSPLVRVKEEPPSPPQSPRVEEASPGRPSSVDTLLSPTALIDSILRESEPAPASVTALTDARGHTDTEGRPPSPPPTSTPEKCLSVACLDKNELSDHLDAMDSNLDNLQTMLSSHGFSVDTSALLDLFSPSVTVPDMSLPDLDSSLASIQELLSPQEPPRPPEAENSSPDSGKQLVHYTAQPLFLLDPGSVDTGSNDLPVLFELGEGSYFSEGDGFAEDPTISLLTGSEPPKAKDPTVS
notes: human heat shock transcription factor 1 (HSF1) with M161I in LZ1-3; Found by random mutagenesis in E. coli XL-1 Red; also called M161I mutant; source: S. cerevisiae PS145, mutant of plasmid pRS423GPD-hHSF1, in total protein extract
B2: human HSF1 L189P, expressed in yeast (natural protein, UniProt Q00613 1-529, looked up)
chain: B1 chain with I161M, L189P
notes: human heat shock transcription factor 1 (HSF1) with L189P in LZ3; Found by random mutagenesis in E. coli XL-1 Red; also called L189P HSF1 mutant; source: S. cerevisiae PS145, mutant of plasmid pRS423GPD-hHSF1, in total protein extract
B3: human HSF1 L402P, expressed in yeast (natural protein, UniProt Q00613 1-529, looked up)
chain: B1 chain with I161M, L402P
notes: human heat shock transcription factor 1 (HSF1) with L402P in LZ4; Found by random mutagenesis in E. coli XL-1 Red; also called L402P mutant; source: S. cerevisiae PS145, mutant of plasmid pRS423GPD-hHSF1, in total protein extract
B4: human HSF1 H179Y, expressed in yeast (natural protein, UniProt Q00613 1-529, looked up)
chain: B1 chain with I161M, H179Y
notes: human heat shock transcription factor 1 (HSF1) with H179Y between LZ1/2 and LZ3; Found by random mutagenesis in E. coli XL-1 Red; also called H179Y mutant; source: S. cerevisiae PS145, mutant of plasmid pRS423GPD-hHSF1, in total protein extract
B5: human HSF1 K178E, expressed in yeast (natural protein, UniProt Q00613 1-529, looked up)
chain: B1 chain with I161M, K178E
notes: human heat shock transcription factor 1 (HSF1) with K178E between LZ1/2 and LZ3; Found by random mutagenesis in E. coli XL-1 Red; also called K178E mutant; source: S. cerevisiae PS145, mutant of plasmid pRS423GPD-hHSF1, in total protein extract
B6: human HSF1 M161I, expressed in hsf1-/- mouse embryonic fibroblasts (natural protein, UniProt Q00613 1-529, looked up)
chain: B1 chain
notes: human heat shock transcription factor 1 (HSF1) with M161I in LZ1-3; also called M161I mutant; source: hsf1-/- MEFs, transfected, in protein extract
B7: human HSF1 L189P, expressed in hsf1-/- mouse embryonic fibroblasts (natural protein, UniProt Q00613 1-529, looked up)
chain: B1 chain with I161M, L189P
notes: human heat shock transcription factor 1 (HSF1) with L189P in LZ3; also called L189P HSF1 mutant; source: hsf1-/- MEFs, transfected, in protein extract
B8: human HSF1 L402P, expressed in hsf1-/- mouse embryonic fibroblasts (natural protein, UniProt Q00613 1-529, looked up)
chain: B1 chain with I161M, L402P
notes: human heat shock transcription factor 1 (HSF1) with L402P in LZ4; also called L402P mutant; source: hsf1-/- MEFs, transfected, in protein extract
B9: human HSF1 H179Y, expressed in hsf1-/- mouse embryonic fibroblasts (natural protein, UniProt Q00613 1-529, looked up)
chain: B1 chain with I161M, H179Y
notes: human heat shock transcription factor 1 (HSF1) with H179Y between LZ1/2 and LZ3; also called H179Y mutant; source: hsf1-/- MEFs, transfected, in protein extract
B10: human HSF1 K178E, expressed in hsf1-/- mouse embryonic fibroblasts (natural protein, UniProt Q00613 1-529, looked up)
chain: B1 chain with I161M, K178E
notes: human heat shock transcription factor 1 (HSF1) with K178E between LZ1/2 and LZ3; also called K178E mutant; source: hsf1-/- MEFs, transfected, in protein extract

Target: the molecule itself
Assay: cross-linking; EGS cross-linking of total protein extracts of yeast PS145 grown on galactose medium; SDS-PAGE and immunoblot with an HSF1-specific antibody

| Molecule | stoichiometry N |
| --- | --- |
| B1 | 3 |
| B2 | 3 |
| B3 | 3 |
| B4 | 3 |
| B5 | 3 |

target: wild-type human HSF1, expressed in hsf1-/- mouse embryonic fibroblasts (human) (UniProt Q00613); assay: cross-linking; EGS cross-linking of extracts of transfected hsf1-/- MEFs, without stress and after heat stress; immunoblot for HSF1

| Molecule | stoichiometry N |
| --- | --- |
| wild-type human HSF1, expressed in hsf1-/- mouse embryonic fibroblasts (from UniProt Q00613 1-529) (natural protein) | 3 |

Target: the molecule itself
Assay: as above

| Molecule | stoichiometry N |
| --- | --- |
| B6 | 3 |
| B7 | 3 |
| B8 | 3 |
| B9 | 3 |
| B10 | 3 |
